# Reference: patent US5942405A, “Therapeutic and screening methods using C3a receptor and C3a” (priority 1997, dated 1999)
# Target: T1, C3a Receptor (Homo sapiens, UniProt Q16581)
# T1 sequence (Q16581 1-482 F151C): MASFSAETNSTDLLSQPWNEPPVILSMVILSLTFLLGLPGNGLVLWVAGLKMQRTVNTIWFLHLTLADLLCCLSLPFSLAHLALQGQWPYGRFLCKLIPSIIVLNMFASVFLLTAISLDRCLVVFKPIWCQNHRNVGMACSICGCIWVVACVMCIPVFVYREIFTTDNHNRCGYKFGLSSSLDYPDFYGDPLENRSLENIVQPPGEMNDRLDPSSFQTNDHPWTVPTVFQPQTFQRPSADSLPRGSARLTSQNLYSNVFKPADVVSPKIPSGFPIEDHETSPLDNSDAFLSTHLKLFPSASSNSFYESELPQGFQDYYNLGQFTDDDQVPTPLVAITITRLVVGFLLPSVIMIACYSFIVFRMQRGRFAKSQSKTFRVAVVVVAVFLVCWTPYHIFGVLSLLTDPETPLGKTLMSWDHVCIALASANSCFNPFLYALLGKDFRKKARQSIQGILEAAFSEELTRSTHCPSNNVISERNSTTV
# Assay: C3a binding to HEK 293 cells stably expressing C3a Receptor mRNA
# Design: cDNA encoding a complete orphan GPCR of 482 amino acids; expressed in transfected cells
# Details: data not shown
# Text: C3a was radioiodinated and used in whole cell binding assays to further characterize C3a Receptor. […] Curiously, HEK 293 cells stably expressing C3a Receptor mRNA by Northern Blot, neither bound nor responded to C3a (data not shown).
substance,measurement,value
"C3a: C3a was purchased from Advanced Research Technologies, San Diego; anaphylatoxin; radioiodinated for binding",binding of C3a to HEK 293 cells expressing C3a Receptor mRNA,neither bound
